# According to patent US20180072810A1 (published 2018):
# Biological target: T1, cynomolgus PD-1 Fc fusion (cynomolgus monkey, UniProt B0LAJ3 25-170)
# T1 construct: also called Cyno PD-1 (ELISA)
# Assay: ELISA on plate-bound cynomolgus PD-1 Fc fusion
# T1 sequence (B0LAJ3 entry or part of it limits assumed, form in doubt): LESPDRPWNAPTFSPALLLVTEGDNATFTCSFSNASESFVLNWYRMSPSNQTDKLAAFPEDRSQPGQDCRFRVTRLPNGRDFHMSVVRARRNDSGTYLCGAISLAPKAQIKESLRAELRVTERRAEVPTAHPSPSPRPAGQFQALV
binder,measurement,value
"Nivolumab (antibody, V domains shown) VH: QVQLVESGGGVVQPGRSLRLDCKASGITFSNSGMHWVRQAPGKGLEWVAVIWYDGSKRYYADSVKGRFTISRDNSKNTLFLQMNSLRAEDTAVYYCATNDDYWGQGTLVTVSS VL: EIVLTQSPATLSLSPGERATLSCRASQSVSSYLAWYQQKPGQAPRLLIYDASNRATGIPARFSGSGSGTDFTLTISSLEPEDFAVYYCQQSSNWPRTFGQGTKVEIK",EC50,0.07 nM
